This passage reports Kd results from paper PMC10999177, “miR‐1246 promotes osteosarcoma cell migration via NamiRNA‐enhancer network dependent on Argonaute 2”.

In this data set the target is hAGO2 (Homo sapiens, UniProt Q9UKV8 1-859). The data set is described as follows: EMSA; 20 nM probe, binding buffer of cited ref. 28 (composition and pH not given), on ice 30 min; 5% native PAGE, 0.5x TBE, 100 V 50 min. The following applies: protein: recombinant; tags: MBP-tag removed by thrombin; HisTrap purification (His tag implied); label: 5'-Cy5; single strand.
hAGO2, sequence (Q9UKV8 whole entry): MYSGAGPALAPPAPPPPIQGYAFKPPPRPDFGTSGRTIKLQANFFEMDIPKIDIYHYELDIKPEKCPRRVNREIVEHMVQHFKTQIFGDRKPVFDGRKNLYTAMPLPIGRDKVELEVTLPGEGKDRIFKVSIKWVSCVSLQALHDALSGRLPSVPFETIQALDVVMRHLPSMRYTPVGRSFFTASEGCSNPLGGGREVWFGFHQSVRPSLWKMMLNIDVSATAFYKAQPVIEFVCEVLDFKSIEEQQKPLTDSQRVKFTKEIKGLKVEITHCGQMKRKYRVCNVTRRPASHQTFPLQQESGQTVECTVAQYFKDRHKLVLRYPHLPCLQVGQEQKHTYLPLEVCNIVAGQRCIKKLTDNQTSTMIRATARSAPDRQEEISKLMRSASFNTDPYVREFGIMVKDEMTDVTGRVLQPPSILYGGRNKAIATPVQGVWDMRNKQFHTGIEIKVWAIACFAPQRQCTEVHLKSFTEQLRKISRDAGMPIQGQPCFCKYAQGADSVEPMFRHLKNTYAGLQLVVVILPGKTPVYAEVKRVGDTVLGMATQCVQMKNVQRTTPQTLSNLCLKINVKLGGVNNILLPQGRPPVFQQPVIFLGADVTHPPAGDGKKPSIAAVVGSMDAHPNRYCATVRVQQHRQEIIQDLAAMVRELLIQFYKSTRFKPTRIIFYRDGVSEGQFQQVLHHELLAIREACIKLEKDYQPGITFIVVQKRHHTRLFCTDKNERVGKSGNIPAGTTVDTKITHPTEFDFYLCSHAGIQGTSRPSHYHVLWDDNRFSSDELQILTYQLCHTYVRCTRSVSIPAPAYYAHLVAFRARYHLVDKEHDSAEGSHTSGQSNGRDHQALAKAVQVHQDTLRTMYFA

As a reminder, the Kd is a measure of binding affinity in units of concentration. For the molecule AAUGGAUUUUUGGAGCAGG (ssRNA) [5'Cy5-miR-1246], the Kd amounted to 12.2 ± 1.8 nM.
